According to patent publication US20200317802A1:
Numbering of substitutions follows the chain as printed. Each block holds one binder with its values, some of them ahead of it.

How the values were obtained:
[1] = biological target: bovine recombinant ADAMTS5 (bovine); test: SPR off-rate, Biacore T100, ADAMTS5 immobilised, experiment 3
[2] = biological target: activated human MMP-1 (human) (UniProt P03956)
[3] = biological target: T1, human ADAMTS4 (R&D Systems cat #4307-AD) (human) (UniProt O75173)
T1 sequence (looked up): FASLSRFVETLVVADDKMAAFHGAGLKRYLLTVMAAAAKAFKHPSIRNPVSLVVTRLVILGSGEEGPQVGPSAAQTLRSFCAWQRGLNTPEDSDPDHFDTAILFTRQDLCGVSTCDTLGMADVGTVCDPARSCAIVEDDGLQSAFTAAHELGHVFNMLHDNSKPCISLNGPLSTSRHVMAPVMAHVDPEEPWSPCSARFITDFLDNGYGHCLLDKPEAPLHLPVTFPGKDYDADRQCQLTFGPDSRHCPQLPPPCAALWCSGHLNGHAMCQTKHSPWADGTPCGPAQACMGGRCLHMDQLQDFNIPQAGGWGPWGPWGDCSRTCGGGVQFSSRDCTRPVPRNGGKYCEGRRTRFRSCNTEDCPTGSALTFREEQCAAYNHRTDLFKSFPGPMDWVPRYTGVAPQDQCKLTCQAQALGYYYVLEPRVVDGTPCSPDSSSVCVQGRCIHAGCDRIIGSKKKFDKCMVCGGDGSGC

[4] = biological target: recombinant human ADAMTS5 (R&D Systems cat #2198-AD) (human) (UniProt Q9UNA0); test: cell-based or functional assay
Sequence of recombinant human ADAMTS5 (R&D Systems cat #2198-AD) (human) (Q9UNA0 262-622 limits assumed): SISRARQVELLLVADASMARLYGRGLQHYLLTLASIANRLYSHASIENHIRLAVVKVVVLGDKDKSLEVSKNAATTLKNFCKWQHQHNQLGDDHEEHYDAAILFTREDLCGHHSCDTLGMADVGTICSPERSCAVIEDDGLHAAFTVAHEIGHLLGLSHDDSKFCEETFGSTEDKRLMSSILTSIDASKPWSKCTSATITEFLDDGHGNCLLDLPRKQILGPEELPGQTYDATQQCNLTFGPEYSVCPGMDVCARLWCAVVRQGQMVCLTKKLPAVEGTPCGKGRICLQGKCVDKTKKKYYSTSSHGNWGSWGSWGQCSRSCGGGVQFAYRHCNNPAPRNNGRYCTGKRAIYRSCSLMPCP

Sequence of activated human MMP-1 (human) (P03956 100-469 limits assumed): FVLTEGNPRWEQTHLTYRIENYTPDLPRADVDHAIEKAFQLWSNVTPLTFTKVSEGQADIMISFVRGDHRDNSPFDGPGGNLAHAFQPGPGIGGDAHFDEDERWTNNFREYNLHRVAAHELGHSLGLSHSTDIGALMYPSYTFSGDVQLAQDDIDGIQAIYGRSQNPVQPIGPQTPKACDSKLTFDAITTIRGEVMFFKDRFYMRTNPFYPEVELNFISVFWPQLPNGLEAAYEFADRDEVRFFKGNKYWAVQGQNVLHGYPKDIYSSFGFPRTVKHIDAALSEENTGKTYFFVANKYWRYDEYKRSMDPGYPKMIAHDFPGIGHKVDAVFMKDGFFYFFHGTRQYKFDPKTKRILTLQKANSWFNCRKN

B1: Nanobody 2D07 (VHH)
VHH: EVQLVESGGGLVQAGGSLRLSCSFSGPGRTFARYAMGWFRQAPGKNRDFITGISGSGDSTYYVYPMKDRFTISRDNAKNMVYLQMNALKPEDTAVYYCAADREINRIANDKELDFWGQGTLVTVSS
koff [1]: 0.00062 s⁻¹

B2: Nanobody 2F03 (VHH)
VHH: EVQLVESGGGLVQAGGSLRLSCAASGRTVSSYAMGWFRLAPGKEREFVAGISRSAERTYYVDSLKGRFTISRDSAKNTVYLHMNRLKPEDTAVYYCAADLDPNRIFSREEYAYWGQGTLVTVSS
koff [1]: 4.3e-05 s⁻¹

B3: Nanobody 2A12 (VHH)
VHH: B2 VHH with V29F, L39Q, E46D, E56G, L64V, H82Q, E109D, Y111A
koff [1]: 0.00017 s⁻¹

Now from value to binder:

koff [1]: 0.00099 s⁻¹
B4: Nanobody 9D03 (VHH)
VHH: EVQLVESGGGLVQSGGSLRLSCAASGSAVSVNAMAWYRQAPGKQRDFVAGISRSAGRTYYTDSVKDRFTIARDSAKNTVYLQMNRLKPEDTAVYYCAADLDPNRIFSRDEAAYWGQGTLVTVSS

koff [1]: 0.0011 s⁻¹
B5: Nanobody 3B02 (VHH)
VHH: EVQLVESGGGFVQAGGSLRLSCVASRRTISSGTMGWFRQAPGKEREFVAAIRWSSGMPYYLDSVMDRFTISRDNAKNTVSLQMNSLQPEDTAVYYCAADRSAFRDPSFDVNYEYWGRGTLVTVSS

koff [1]: 0.00024 s⁻¹
B6: Nanobody 11B06 (VHH)
VHH: EVQLVESGGGLVQAGGSLRLSCAASGLTFRRNAMGWFRQAPGKERELLAGINWSGGTTYYVDSVKGRFTISRDNAKNTVDLQMISPKPEDTAVYYCAADGDIGTLVNDENPRYWGQGTLVTVSS

IC50 (read off the curve) (human MMP-1 activity, FRET peptide substrate) [2]: 5 nM
IC50 (read off the curve) (human ADAMTS-4 AlphaLISA) [right panel] [3]: 2 nM
Human AlphaLISA % inhibition [4]: 100%
Human AlphaLISA IC50 [4]: 0.61 nM
B7: rhTIMP3 (protein, human, UniProt P35625 24-211, looked up)
chain: CTCSPSHPQDAFCNSDIVIRAKVVGKKLVKEGPFGTLVYTIKQMKMYRGFTKMPHVQYIHTEASESLCGLKLEVNKYQYLLTGRVYDGKMYTGLCNFVERWDQLTLSQRKGLNYRYHLGCNCKIKSCYYLPCFVTSKNECLWTDMLSNFGYPGYQSKHYACIRQKGGYCSWYRGWAPPDKSIINATDP

koff [1]: 0.00035 s⁻¹
B8: Nanobody 3D01 (VHH)
VHH: EVQLVESGGGLVQAGGSLRLSCAPSGFTFSPYYMGWFRQAPGKERDFVAAISRSRGTTYYLDSTEGRFTISRDNANDTVYLQMNSLNPEDTAVYYCAAGRSPGDPSRTYLYDYWGQGTLVTVSS
